The results in this text go back to the supplement of paper PMC5998384.

Data set [1] deals with HeLa Kyoto. Kind of data set: solubility in G1/S (NP-40 vs SDS abundance) (log2 ratio); higher = more soluble. To be noted: cell cycle stage: G1/S.
The subject of data set [2] is HeLa Kyoto. As to the kind of experiment: melting temperature (median over replicates), in situ; higher = more thermally stable.
The test system of data set [3] is HeLa Kyoto. As to the kind of experiment: solubility change mitosis vs G1/S (difference of NP-40 vs SDS log2 ratios) (log2 ratio difference); higher = more soluble in mitosis.
For data set [4], the system named is HeLa Kyoto. As to the kind of experiment: thermal stability score vs G1/S (z-score of summed log2 fold changes over temperatures); higher = more thermally stable than in G1/S.
Setting [5] is: cell cycle stage: early G1 (4.5 h after nocodazole release).
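Throughout, for melting temperature (median over replicates), in situ: HeLa Kyoto cells synchronized by double thymidine or nocodazole block, proteins quantified by TMT10plex mass spectrometry, three independent biological replicates.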
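Throughout, for solubility change mitosis vs G1/S (difference of NP-40 vs SDS log2 ratios): synchronized HeLa Kyoto cells (double thymidine block for G1/S, nocodazole release for mitosis), protein amounts in NP-40 versus SDS lysates quantified by mass spectrometry, three biological replicates.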
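Throughout, for solubility in G1/S (NP-40 vs SDS abundance): HeLa Kyoto cells arrested at G1/S by double thymidine block, proteins quantified by TMT10plex mass spectrometry in mild NP-40 versus SDS extracts, three biological replicates.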
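Throughout, for thermal stability score vs G1/S (z-score of summed log2 fold changes over temperatures): synchronized HeLa Kyoto cells, proteins quantified by TMT10plex mass spectrometry, three biological replicates, mitosis taken 0.5 h after nocodazole release, G1/S directly after double thymidine block.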

Turning to “MDCYTANWNPLGDSAFYRKYELYSMDWDLKEELRDCLVAAAPYGGPIALLRNPWRKEKAASVRPVLDIYSASGMPLASLLWKSGPVVSLGWSAEEELLCVQEDGAVLVYGLHGDFRRHFSMGNEVLQNRVLDARIFHTEFGSGVAILTGAHRFTLSANVGDLKLRRMPEVPGLQSAPSCWTVLCQDRVAHILLAVGPDLYLLDHAACSAVTPPGLAPGVSSFLQMAVSFTYRHLALFTDTGYIWMGTASLKEKLCEFNCNIRAPPKQMVWCSRPRSKERAVVVAWERRLMVVGDAPESIQFVLDEDSYLVPELDGVRIFSRSTHEFLHEVPAASEEIFKIASMAPGALLLEAQKEYEKESQKADEYLREIQELGQLTQAVQQCIEAAGHEHQPDMQKSLLRAASFGKCFLDRFPPDSFVHMCQDLRVLNAVRDYHIGIPLTYSQYKQLTIQVLLDRLVLRRLYPLAIQICEYLRLPEVQGVSRILAHWACYKVQQKDVSDEDVARAINQKLGDTPGVSYSDIAARAYGCGRTELAIKLLEYEPRSGEQVPLLLKMKRSKLALSKAIESGDTDLVFTVLLHLKNELNRGDFFMTLRNQPMALSLYRQFCKHQELETLKDLYNQDDNHQELGSFHIRASYAAEERIEGRVAALQTAADAFYKAKNEFAAKATEDQMRLLRLQRRLEDELGGQFLDLSLHDTVTTLILGGHNKRAEQLARDFRIPDKRLWWLKLTALADLEDWEELEKFSKSKKSPIGYLPFVEICMKQHNKYEAKKYASRVGPEQKVKALLLVGDVAQAADVAIEHRNEAELSLVLSHCTGATDGATADKIQRARAQAQKK [VPS16]”, the “solubility in G1/S (log2)” value in data set [1] is -0.206. For the same sequence, the values for the melting temperature in data set [2] (cell cycle stage: G1/S) and in data set [2] (cell cycle stage: mitosis) were 49.9 °C and 50.1 °C, respectively. Moreover, in data set [3], the “solubility change mitosis (log2)” value was -0.12. For the same sequence, the thermal stability score turned out to be 0.278 in data set [4] (setting [5]) and 0.681 in data set [4] (cell cycle stage: mitosis).
On to “MDDTLFQLKFTAKQLEKLAKKAEKDSKAEQAKVKKALLQKNVECARVYAENAIRKKNEGVNWLRMASRVDAVASKVQTAVTMKGVTKNMAQVTKALDKALSTMDLQKVSSVMDRFEQQVQNLDVHTSVMEDSMSSATTLTTPQEQVDSLIMQIAEENGLEVLDQLSQLPEGASAVGESSVRSQEDQLSRRLAALRN [CHMP1A]”, for which the “solubility in G1/S (log2)” value in data set [1] stood at 0.509. In addition, the melting temperature was 54.4 °C in data set [2] (cell cycle stage: G1/S) and 53.9 °C in data set [2] (cell cycle stage: mitosis). Further, the “solubility change mitosis (log2)” value in data set [3] was determined as 0.313. The thermal stability score is -0.982 in data set [4] (setting [5]) and -1.61 in data set [4] (cell cycle stage: mitosis).
Turning to “MDEDGLPLMGSGIDLTKVPAIQQKRTVAFLNQFVVHTVQFLNRFSTVCEEKLADLSLRIQQIETTLNILDAKLSSIPGLDDVTVEVSPLNVTSVTNGAHPEATSEQPQQNSTQDSGLQESEVSAENILTVAKDPRYARYLKMVQVGVPVMAIRNKMISEGLDPDLLERPDAPVPDGESEKTVEESSDSESSFSD [CCDC53]”, the “solubility in G1/S (log2)” value in data set [1] is -0.349. Also, in data set [2] (cell cycle stage: G1/S), the melting temperature stood at 52.7 °C. Besides, the “solubility change mitosis (log2)” value in data set [3] is -0.0689. The thermal stability score in data set [4] (setting [5]) was 0.159; in data set [4] (cell cycle stage: mitosis), -0.73.
With “MDEMATTQISKDELDELKEAFAKVDLNSNGFICDYELHELFKEANMPLPGYKVREIIQKLMLDGDRNKDGKISFDEFVYIFQEVKSSDIAKTFRKAINRKEGICALGGTSELSSEGTQHSYSEEEKYAFVNWINKALENDPDCRHVIPMNPNTDDLFKAVGDGIVLCKMINLSVPDTIDERAINKKKLTPFIIQENLNLALNSASAIGCHVVNIGAEDLRAGKPHLVLGLLWQIIKIGLFADIELSRNEALAALLRDGETLEELMKLSPEELLLRWANFHLENSGWQKINNFSADIKDSKAYFHLLNQIAPKGQKEGEPRIDINMSGFNETDDLKRAESMLQQADKLGCRQFVTPADVVSGNPKLNLAFVANLFNKYPALTKPENQDIDWTLLEGETREERTFRNWMNSLGVNPHVNHLYADLQDALVILQLYERIKVPVDWSKVNKPPYPKLGANMKKLENCNYAVELGKHPAKFSLVGIGGQDLNDGNQTLTLALVWQLMRRYTLNVLEDLGDGQKANDDIIVNWVNRTLSEAGKSTSIQSFKDKTISSSLAVVDLIDAIQPGCINYDLVKSGNLTEDDKHNNAKYAVSMARRIGARVYALPEDLVEVKPKMVMTVFACLMGRGMKRV [PLS3]”, the “solubility in G1/S (log2)” value in data set [1] came out at 0.439. For the same sequence, the melting temperature is 54.9 °C in data set [2] (cell cycle stage: G1/S) and 54.5 °C in data set [2] (cell cycle stage: mitosis). In addition, the “solubility change mitosis (log2)” value in data set [3] was 0.00363. Further, the thermal stability score was determined as 1.07 in data set [4] (setting [5]) and 1.27 in data set [4] (cell cycle stage: mitosis).
On to “MDEQALLGLNPNADSDFRQRALAYFEQLKISPDAWQVCAEALAQRTYSDDHVKFFCFQVLEHQVKYKYSELTTVQQQLIRETLISWLQAQMLNPQPEKTFIRNKAAQVFALLFVTEYLTKWPKFFFDILSVVDLNPRGVDLYLRILMAIDSELVDRDVVHTSEEARRNTLIKDTMREQCIPNLVESWYQILQNYQFTNSEVTCQCLEVVGAYVSWIDLSLIANDRFINMLLGHMSIEVLREEACDCLFEVVNKGMDPVDKMKLVESLCQVLQSAGFFSIDQEEDVDFLARFSKLVNGMGQSLIVSWSKLIKNGDIKNAQEALQAIETKVALMLQLLIHEDDDISSNIIGFCYDYLHILKQLTVLSDQQKANVEAIMLAVMKKLTYDEEYNFENEGEDEAMFVEYRKQLKLLLDRLAQVSPELLLASVRRVFSSTLQNWQTTRFMEVEVAIRLLYMLAEALPVSHGAHFSGDVSKASALQDMMRTLVTSGVSSYQHTSVTLEFFETVVRYEKFFTVEPQHIPCVLMAFLDHRGLRHSSAKVRSRTAYLFSRFVKSLNKQMNPFIEDILNRIQDLLELSPPENGHQSLLSSDDQLFIYETAGVLIVNSEYPAERKQALMRNLLTPLMEKFKILLEKLMLAQDEERQASLADCLNHAVGFASRTSKAFSNKQTVKQCGCSEVYLDCLQTFLPALSCPLQKDILRSGVRTFLHRMIICLEEEVLPFIPSASEHMLKDCEAKDLQEFIPLINQITAKFKIQVSPFLQQMFMPLLHAIFEVLLRPAEENDQSAALEKQMLRRSYFAFLQTVTGSGMSEVIANQGAENVERVLVTVIQGAVEYPDPIAQKTCFIILSKLVELWGGKDGPVGFADFVYKHIVPACFLAPLKQTFDLADAQTVLALSECAVTLKTIHLKRGPECVQYLQQEYLPSLQVAPEIIQEFCQALQQPDAKVFKNYLKVFFQRAKP [XPOT]”, for which the “solubility in G1/S (log2)” value in data set [1] is -0.059. Also, the melting temperature stood at 49.5 °C in data set [2] (cell cycle stage: G1/S) and 50.1 °C in data set [2] (cell cycle stage: mitosis). Further, the “solubility change mitosis (log2)” value in data set [3] is -0.226. Besides, the thermal stability score amounted to 1.65 in data set [4] (setting [5]) and 3.04 in data set [4] (cell cycle stage: mitosis).
